Results from patent publication US9091696B2, “Modulation of NR2F6 and methods and uses thereof” (Regen Biopharma, Inc., priority 2008, dated 2015).
Changes are numbered by the printed parent chain.

Legend:
U937 GFP cells = test: Cell cycle analysis by propidium iodide DNA content after atRA; type: cell-based, human; details: control U937 GFP cells; FIG. 3B
Description: Differentiation was induced in the U937 cell line by treatment with 10 nM TPA (Sigma), 1 uM ATRA (Sigma), or 1.25% v/v DMSO (Sigma) respectively. Immunostaining for the maturation marker CD11b (eBioscience) was performed for twenty minutes in the dark according to manufacturer's instructions and cells were analysed by flow cytometry. Nitroblue tetrazolium (NBT) reduction test (Sigma) was performed according to the manufacturer's instructions, with a minimum of 300 cells scored per slide in three different fields of view. Each experimental timepoint was conducted in triplicate.
Overexpression of NR2F6 is able to override the growth arrest associated with differentiation and maturation, in particular maturation and differentiation induced by all-trans retinoic acid (FIG. 3). […] Growth of U937 cells expressing either GFP of NR2F6-IRES-GFP was monitored by counting using trypan blue following treatment of cells with atRA (FIG. 3A). U937 cells expressing either GFP of NR2F6-IRES-GFP were treated with atRA. DNA content was assessed using propidium iodide in order to determine which phase of the cell cycle the cells in each respective population resided in (FIG. 3B).

32Dcl3-NR2F6 cells = test: G-CSF induced differentiation of NR2F6 over-expressing cells after HDAC inhibitor pretreatment (cell surface CD11b); type: cell-based, mouse; details: pretreatment prior to G-CSF; non-treated 32Dcl3-NR2F6 cells failed to differentiate; FIG. 32
Excerpt: It has been reported that NR2F6 exerts its regulatory effects primarily as a transcriptional repressor (Liu, X., Huang, X., and Sigmund, C. D. (2003). Identification of a nuclear orphan receptor (Ear2) as a negative regulator of renin gene transcription. Circ Res 92, 1033-1040.). The repressor activity of nuclear receptors is mediated by recruitment of corepressors with histone deacetylase (HDAC) activity; we therefore evaluated the importance of this mechanism in the effects of NR2F6 on haematopoiesis and evaluated weather the activity of NR2F6 can be modulated with an HDAC inhibitor. 32Dcl3-NR2F6 cells were incubated with the non-specific histone deacetylase inhibitor sodium butyrate prior to treatment with G-CSF.

bone marrow cells = test: Methylcellulose colony formation and replating after silencing of EAR-2 (NR2F6); type: cell-based, mouse; details: cytokines promoting multilineage or erythroid progenitor differentiation; FIG. 58
Description: We assessed the effects of silencing of EAR-2 expression on colony formation in vitro. […] In replating experiments we observed a significant decrease in secondary colonies in cells in which EAR-2 expression was silenced FIG. 59.
• The 293GPG retroviral packaging cell line (a gift of Richard Mulligan, Harvard University) was grown in DMEM medium supplemented with 10% FBS, tetracycline ([…]), G418 (0.3 mg/mL) and puromycin ([…]). Human EAR-2 cDNA (a kind gift from John Ladias, Harvard University) or Mus EAR-2 cDNA (a kind gift from, Curt D. Sigmund, University of Iowa) was subcloned into the pcDNA3.1V5/HIS vector (Invitrogen). […] Real time PCR was performed according to manufacturer's instructions using SYBR Green Master Mix (Applied Biosystems, Foster City, Calif.) and analyzed using the delta-delta CT method (16). Bone Marrow Transduction • Using the retroviral constructs described above, we forced expression of EAR-2 in primary murine BM cells and monitored the effects on differentiation using colony assays. […] Forty-eight hours after retroviral infection GFP-positive cells were collected by fluorescence activated cell sorting (FACS). […] GFP-positive cells were purified by fluorescence activated cell sorting (FACS) and cultured in methylcellulose medium containing hematopoietic growth factors that favored multilineage differentiation. […]

Murine bone marrow cells = test: shRNA knock down of NR2F6 in ex vivo bone marrow suspension culture (flow cytometry, morphology); type: cell-based, mouse
Description: Murine bone marrow cells were cultured in conditions that preserved stem cell maintenance (c-kit ligand; thrombopoietin; and Flt3 ligand in OP9 conditioned medium) and transduced with either an shRNA targeting NR2F6 or a scrambled control shRNA. Following seven days in culture cells were analysed by flow cytometry.

[1] = tested on: 32Dcl3 mouse hematopoietic cells; test: shRNA knock down of NR2F6, differentiation by cytospins and flow cytometry; type: cell-based; details: vs pSiren universal negative control, FIG. 26
Description: Knock down of NR2F6 using short-hairpin RNAs induces differentiation and maturation of 32Dcl3 mouse hematopoietic cells (FIG. 26).
(§1) Oligonucleotides targeting human or mouse EAR-2 were synthesized (Sigma), annealed and cloned into the pSiren vector (Clontech), after which sequence was verified (The Centre for Applied Genomics, Toronto). Virus was prepared by transient transfection of plasmid in the 293GPG cell line as described above. Knockdown was confirmed by western blot for these vectors in cell lines and by qPCR in bone marrow cells (data not shown and (17)).

[2] = tested on: U937 human myelomonocytic leukemia cells; test: as above; type: cell-based; details: vs pSiren universal negative control, FIG. 27
Description: Knock down of NR2F6 using short-hairpin RNAs induces terminal differentiation, blood cell maturation death of U937 human leukemia cells (FIG. 27).
as §1

CC1=C(/C=C/C(C)=C/C=C/C(C)=C/C(=O)O)C(C)(C)CCC1 [atRA, all-trans retinoic acid]
number of cells in S/G2/M phases of the cell cycle (U937 GFP cells): drastic decrease in the number of cells in S/G2/M phases

CCCC(=O)[O-].[Na+] [sodium butyrate]
G-CSF induced differentiation (cell surface CD11b expression) (32Dcl3-NR2F6 cells): showed recovery of G-CSF induced differentiation

B1: Mus shNR2F6: short-hairpin RNA targeting mouse NR2F6, SEQ ID NO: 5, cloned into the pSiren vector (nucleic acid)
DNA: GATCCGCATTACGGCGTGTTCACCTTCAAGAGAGGTGAACACGCCGTAATGCTTTTTTCTAGAG
colony size in methylcellulose (bone marrow cells): increase in the size of colonies | differentiation and maturation of bone marrow cells into neutrophils (Murine bone marrow cells; flow cytometry (FIG. 30) and morphology (FIG. 31)): promoted the differentiation and maturation of bone marrow cells into neutrophils | number of immature cells (devoid of markers of lineage commitment) (Murine bone marrow cells; seven days in culture, vs scrambled shRNA control, flow cytometry, FIG. 28): dramatically reduced the number of immature cells | number of stem cells (ckit+Sca-1+lineage-, KSL cells) (Murine bone marrow cells; seven days in culture, vs scrambled shRNA control, flow cytometry, FIG. 29): dramatically reduced | myeloid cell differentiation [1]: induces spontaneous myeloid cell differentiation

B2: Human shNR2F6: short-hairpin RNA targeting human NR2F6, SEQ ID NO: 6, cloned into the pSiren vector (nucleic acid)
DNA: B1 DNA with C15T, G18C, C40G, G43A
myeloid cell differentiation [2]: induces spontaneous myeloid cell differentiation
